The chains are these.
B1: TWIST1 E193A (natural protein, human, UniProt Q15672 1-202, looked up)
chain: MMQDVSSSPVSPADDSLSNSEEEPDRQQPPSGKRGGRKRRSSRRSAGGGAGPGGAAGGGVGGGDEPGSPAQGKRGKKSAGCGGGGGAGGGGGSSSGGGSPQSYEELQTQRVMANVRERQRTQSLNEAFAALRKIIPTLPSDKLSKIQTLKLAARYIDFLYQVLQSDELDSKMASCSYVAHERLSYAFSVWRMAGAWSMSASH
B2: TWIST1 W190A (natural protein, human, UniProt Q15672 1-202, looked up)
chain: B1 chain with W190A, A193E
B3: TWIST1 R191A (natural protein, human, UniProt Q15672 1-202, looked up)
chain: B1 chain with R191A, A193E

Substitutions are numbered along the chain they refer to. In names and notes the source's numbering stands.

The target in this assay is RELA (wild type), NF-kB subunit p65 (UniProt Q04206 1-551). Description: cell-based or functional assay.
Chain of RELA (wild type), NF-kB subunit p65 (Q04206 whole entry): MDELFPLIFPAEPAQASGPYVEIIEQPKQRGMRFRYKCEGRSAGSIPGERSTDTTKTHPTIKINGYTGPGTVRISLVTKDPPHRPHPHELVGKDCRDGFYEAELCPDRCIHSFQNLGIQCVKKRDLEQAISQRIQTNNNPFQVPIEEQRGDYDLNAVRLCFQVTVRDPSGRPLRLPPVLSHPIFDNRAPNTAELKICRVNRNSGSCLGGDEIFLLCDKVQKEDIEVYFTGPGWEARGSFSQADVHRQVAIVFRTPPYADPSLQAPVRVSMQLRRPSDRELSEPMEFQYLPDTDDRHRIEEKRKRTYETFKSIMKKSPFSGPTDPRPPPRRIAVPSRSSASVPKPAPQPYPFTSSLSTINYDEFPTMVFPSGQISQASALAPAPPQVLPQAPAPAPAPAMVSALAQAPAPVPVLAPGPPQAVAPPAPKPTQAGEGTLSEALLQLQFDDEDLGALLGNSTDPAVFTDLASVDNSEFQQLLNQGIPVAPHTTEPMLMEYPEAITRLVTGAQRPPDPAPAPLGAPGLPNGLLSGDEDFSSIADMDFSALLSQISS
On to B1, for which the “IL-8 promoter driven firefly luciferase (dual luciferase assay) in Ovcar4 cells, reduction against wild type TWIST1” value was 50%.

As for B2, the “IL-8 promoter driven firefly luciferase (dual luciferase assay) in Ovcar4 cells, reduction against wild type TWIST1” value turned out to be 50%.

Turning to B3, the “IL-8 promoter driven firefly luciferase (dual luciferase assay) in Ovcar4 cells, reduction against wild type TWIST1” value turned out to be 50%.

The values above are taken from PMC5345230, “Disruption of TWIST1-RELA binding by mutation and competitive inhibition to validate the TWIST1 WR domain as a therapeutic target” (BMC Cancer, 2017).
